Measurements from patent US20220041746A1 (Sanofi, published 2022).

B1: CD38VH1×CD28cvn×CD3low IgG4 (other)
VH 1: QVQLVQSGAEVVKPGASVKVSCKASGYTFTSYAMHWVKEAPGQRLEWIGYIYPGQGGTNYNQKFQGRATLTADTSASTAYMELSSLRSEDTAVYFCARTGGLRRAYFTYWGQGTLVTVSS
VL 1: DIVLTQSPATLSLSPGERATISCRASQSVSSYGQGFMHWYQQKPGQPPRLLIYGASSRATGIPARFSGSGSGTDFTLTISPLEPEDFAVYYCQQNKEDPWTFGGGTKLEIK
VH 2: QVQLQESGPGLVKPSQTLSLTCTVSGFSLSDYGVHWVRQPPGKGLEWLGVIWAGGGTNYNPSLKSRKTISKDTSKNQVSLKLSSVTAADTAVYYCARDKGYSYYYSMDYWGQGTTVTVSS
VL 2: DIVLTQSPASLAVSPGQRATITCRASESVEYYVTSLMQWYQQKPGQPPKLLIFAASNVESGVPARFSGSGSGTDFTLTINPVEANDVANYYCQQSRKVPYTFGQGTKLEIK
VH 3: QVQLVESGGGVVQPGRSLRLSCAASGFTFTKAWMHWVRQAPGKGLEWVAQIKDKSNSYATYYADSVKGRFTISRDNSKNTLYLQMNSLRAEDTAVYYCRGVYYALSPFDYWGQGTLVTVSS
VL 3: DIVMTQTPLSLSVTPGQPASISCKSSQSLVHNNGNTYLSWYLQKPGQSPQLLIYKVSNRFSGVPDRFSGSGSGTDFTLKISRVEAEDVGVYYCGQGTQYPFTFGGGTKVEIK
notes: also called CD38VH1×CD28evn×CD3low IgG4
B2: CD38VH1×CD28sup×CD3low IgG4 (other)
VH 1: B1 VH 1
VL 1: B1 VL 1
VH 2: QVQLVQSGAEVVKPGASVKVSCKASGYTFTSYYIHWVRQAPGQGLEWIGSIYPGNVNTNYAQKFQGRATLTVDTSISTAYMELSRLRSDDTAVYYCTRSHYGLDWNFDVWGKGTTVTVSS
VL 2: DIQMTQSPSSLSASVGDRVTITCQASQNIYVWLNWYQQKPGKAPKLLIYKASNLHTGVPSRFSGSGSGTDFTLTISSLQPEDIATYYCQQGQTYPYTFGQGTKLEIK
VH 3: B1 VH 3
VL 3: B1 VL 3

Assays:
[1] = biological target: T1, human CD3 (Cambridge Biologics LLC Cat #03-01-0051) (human, UniProt P07766 23-126; P09693 23-116); assay: ELISA on coated hCD3 γε IgG4; the arrow ends on the second curve from the right, which carries the small markers
T1 construct: the reagent may hold further CD3 chains
Experimental: (§1) The binding properties of the purified antibodies were analyzed either using ELISA or SPR methods. For ELISA, corresponding antigens for each binding site in the trispecific binding protein were used to coat a 96-well Immuno Plate (Nunc 439454, Thermo Fisher Scientific) overnight at 4° C. using 2 μg/ml each antigen m PBS(pH7.4). The coated plate was blocked using 5% skim milk 12% BSA in PBS for one hour at RT, followed by washing with PBS+[…] three times (Aqua Max 400, Molecular Devices). Serial dilution of antibodies (trispecific and control Abs) were prepared and added onto the ELISA plates (100 μl/well in duplicate), incubated at RT for one hour, followed by washing 5 times with PBS+0.25% Tween 20.
(§2) The reaction was terminated by adding 50 μl 1M H₂SO₄, and OD₄₅₀ was measured using SpectraMax M5 (Molecular Devices) and analyzed using SoltMax Pro6.3 software (Molecular Devices). The final data was transferred to GraphPad Prism software (GraphPad Software, CA. USA), and plotted as shown. EC50 was calculated using the same software.

[2] = biological target: T2, recombinant human CD38 (SPR of Example 4) (human, UniProt P28907 45-300, limits assumed); assay: SPR (column 'KD value against rec. protein by SPR (nM)'); second value of the pair, taken for CD3low
[3] = biological target: human CD28 (SPR of Example 4) (human, UniProt P10747 19-152, limits assumed); assay: SPR; KD rounded to an integer; second value of the pair, taken for CD3low
Experimental: (§3) Surface regenerate was conducted by injecting 10 mM Glycine-HCl pH 2.5 for 60 sec at 30 μl/min. […] Equilibrium dissociation constant (KD) was calculated using association rate constant (kₒₙ) and dissociation rate constant (koff).

[4] = biological target: T2, recombinant human CD38 (SPR of Example …); assay: as above
Experimental: as §3

[5] = biological target: T1, human CD3 (Cambridge Biologics LLC Cat …); assay: ELISA on coated hCD3 γε IgG4; the arrow ends on the rightmost curve, which carries the triangles
Experimental: as §1, §2

[6] = biological target: human CD38 (Cambridge Biologics LLC Cat #03-01-0369) (human, UniProt P28907 43-300); assay: ELISA on coated hCD38-His
Experimental: as §1, §2

Row | Binder | EC50 [1] | Kd [2] | Kd [3] | Kd [4] | EC50 [5] | EC50 (read off the curve) [6]
1 | B1 | 0.491 nM | 6 nM | 34 nM | 6 nM |  | 
2 | B2 |  | 6 nM | 4 nM | 6 nM | 1.04 nM | ~6 nM
